The values that follow come from PMC12583524.

The target in this test is infectious CHIKV virion particle with E3 associated (strain CHIKV-181/25) (Chikungunya virus) (UniProt Q8JUX5).
Sequence of infectious CHIKV virion particle with E3 associated (strain CHIKV-181/25) (Chikungunya virus) (Q8JUX5 whole entry, looked up): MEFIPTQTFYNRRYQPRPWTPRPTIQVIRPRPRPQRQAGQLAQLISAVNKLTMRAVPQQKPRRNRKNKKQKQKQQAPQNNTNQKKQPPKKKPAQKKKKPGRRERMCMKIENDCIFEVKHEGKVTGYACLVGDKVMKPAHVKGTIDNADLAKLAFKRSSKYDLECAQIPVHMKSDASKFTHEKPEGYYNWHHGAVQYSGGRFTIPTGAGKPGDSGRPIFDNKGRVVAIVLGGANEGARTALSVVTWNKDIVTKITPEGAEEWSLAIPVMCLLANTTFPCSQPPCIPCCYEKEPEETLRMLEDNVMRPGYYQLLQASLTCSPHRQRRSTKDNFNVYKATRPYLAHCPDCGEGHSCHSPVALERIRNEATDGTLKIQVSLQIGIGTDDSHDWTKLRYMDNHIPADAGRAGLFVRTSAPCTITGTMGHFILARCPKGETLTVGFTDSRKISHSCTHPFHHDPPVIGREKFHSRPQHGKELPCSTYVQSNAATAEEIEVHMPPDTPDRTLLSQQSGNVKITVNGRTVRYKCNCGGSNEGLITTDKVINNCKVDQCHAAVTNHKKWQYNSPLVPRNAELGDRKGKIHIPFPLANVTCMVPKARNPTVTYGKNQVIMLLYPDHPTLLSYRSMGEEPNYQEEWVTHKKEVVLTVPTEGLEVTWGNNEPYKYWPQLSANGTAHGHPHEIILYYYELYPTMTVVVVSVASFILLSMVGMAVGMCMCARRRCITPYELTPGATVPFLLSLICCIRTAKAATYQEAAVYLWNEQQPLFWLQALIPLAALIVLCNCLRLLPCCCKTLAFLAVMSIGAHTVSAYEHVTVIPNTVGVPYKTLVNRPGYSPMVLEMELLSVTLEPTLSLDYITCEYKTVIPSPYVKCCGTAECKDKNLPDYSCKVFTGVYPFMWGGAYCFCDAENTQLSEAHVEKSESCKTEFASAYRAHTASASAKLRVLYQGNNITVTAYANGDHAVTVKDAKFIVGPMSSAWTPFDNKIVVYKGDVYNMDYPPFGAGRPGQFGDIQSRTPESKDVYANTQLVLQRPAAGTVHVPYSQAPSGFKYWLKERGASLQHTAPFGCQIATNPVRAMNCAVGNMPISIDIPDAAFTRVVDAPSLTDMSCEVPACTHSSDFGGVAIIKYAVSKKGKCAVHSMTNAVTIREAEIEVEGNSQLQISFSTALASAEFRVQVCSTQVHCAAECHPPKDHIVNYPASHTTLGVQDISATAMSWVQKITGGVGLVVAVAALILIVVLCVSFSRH

B1: C37 Fab (papain digestion of the mAb) (Fab, V domains shown)
VH: QVQLQESGPGLVKPSETLSLTCTVSGGSIGSSSYYWGWIRQPPGKGLQWIGSFHYSGTTYYNPSLKSRVTISVDTSKNHFSLKLSSVTAADTAVYYCASRQNWNDGYFDYWGQGTLVTVSS
VL: DIQMTQSPATLSLSPGERATLFCRASQSVSSSLAWYQQKPGQAPRLLIYDASNRATGIPARFSGSGSGTDFTLTISSLEPEDFAVYYCQQRGNWPPITFGQGTRLDTK
B1: the PRNT50, post-attachment neutralisation assay on Vero cells is 727 ng/mL.

B2: C37 IgG (antibody, V domains shown)
VH: QVQLQESGPGLVKPSETLSLTCTVSGGSIGSSSYYWGWIRQPPGKGLQWIGSFHYSGTTYYNPSLKSRVTISVDTSKNHFSLKLSSVTAADTAVYYCASRQNWNDGYFDYWGQGTLVTVSS
VL: DIQMTQSPATLSLSPGERATLFCRASQSVSSSLAWYQQKPGQAPRLLIYDASNRATGIPARFSGSGSGTDFTLTISSLEPEDFAVYYCQQRGNWPPITFGQGTRLDTK
In turn, B2 displayed a PRNT50, post-attachment neutralisation assay on Vero cells of 164 ng/mL.

B3: C34 IgG (antibody, V domains shown)
VH: EVQLVESGGGLVQPGRSLRLSCAASGFTFDDYAMHWVRQAPGKGLEWVSGISWNSGSIGYADSVKGRFTISRDNAKNSLYLQMNSLRAEDTALYYCAKDMGYSGNDDYYGMDVWGQGTTVTVSS
VL: DIQLTQSPSSLSASVGDRVTITCRASQRISSYLNWYQQKPGKAPKLLIYGAFSLQSGVPSRFSGSGSGTDFTLTISSLQPEDFATYYCQQSYRTLTRTFGQGTKVEIK
B3 showed a PRNT50, post-attachment neutralisation assay on Vero cells of 48.7 ng/mL.

B4: C34 Fab (papain digestion of the mAb) (Fab, V domains shown)
VH: EVQLVESGGGLVQPGRSLRLSCAASGFTFDDYAMHWVRQAPGKGLEWVSGISWNSGSIGYADSVKGRFTISRDNAKNSLYLQMNSLRAEDTALYYCAKDMGYSGNDDYYGMDVWGQGTTVTVSS
VL: DIQLTQSPSSLSASVGDRVTITCRASQRISSYLNWYQQKPGKAPKLLIYGAFSLQSGVPSRFSGSGSGTDFTLTISSLQPEDFATYYCQQSYRTLTRTFGQGTKVEIK
In turn, B4 had a PRNT50, post-attachment neutralisation assay on Vero cells of 97 ng/mL.
